Data taken from PMC12687421, “Characterisation of an allosteric site in PLCγ enzymes and implications for development of their specific inhibitors” (Biochemical Journal, 2025).

B1: PLCγ1^wt: full-length wild-type human PLCγ1 enzyme (protein, UniProt P19174 1-1290, looked up)
chain: MAGAASPCANGCGPGAPSDAEVLHLCRSLEVGTVMTLFYSKKSQRPERKTFQVKLETRQITWSRGADKIEGAIDIREIKEIRPGKTSRDFDRYQEDPAFRPDQSHCFVILYGMEFRLKTLSLQATSEDEVNMWIKGLTWLMEDTLQAPTPLQIERWLRKQFYSVDRNREDRISAKDLKNMLSQVNYRVPNMRFLRERLTDLEQRSGDITYGQFAQLYRSLMYSAQKTMDLPFLEASTLRAGERPELCRVSLPEFQQFLLDYQGELWAVDRLQVQEFMLSFLRDPLREIEEPYFFLDEFVTFLFSKENSVWNSQLDAVCPDTMNNPLSHYWISSSHNTYLTGDQFSSESSLEAYARCLRMGCRCIELDCWDGPDGMPVIYHGHTLTTKIKFSDVLHTIKEHAFVASEYPVILSIEDHCSIAQQRNMAQYFKKVLGDTLLTKPVEISADGLPSPNQLKRKILIKHKKLAEGSAYEEVPTSMMYSENDISNSIKNGILYLEDPVNHEWYPHYFVLTSSKIYYSEETSSDQGNEDEEEPKEVSSSTELHSNEKWFHGKLGAGRDGRHIAERLLTEYCIETGAPDGSFLVRESETFVGDYTLSFWRNGKVQHCRIHSRQDAGTPKFFLTDNLVFDSLYDLITHYQQVPLRCNEFEMRLSEPVPQTNAHESKEWYHASLTRAQAEHMLMRVPRDGAFLVRKRNEPNSYAISFRAEGKIKHCRVQQEGQTVMLGNSEFDSLVDLISYYEKHPLYRKMKLRYPINEEALEKIGTAEPDYGALYEGRNPGFYVEANPMPTFKCAVKALFDYKAQREDELTFIKSAIIQNVEKQEGGWWRGDYGGKKQLWFPSNYVEEMVNPVALEPEREHLDENSPLGDLLRGVLDVPACQIAIRPEGKNNRLFVFSISMASVAHWSLDVAADSQEELQDWVKKIREVAQTADARLTEGKIMERRKKIALELSELVVYCRPVPFDEEKIGTERACYRDMSSFPETKAEKYVNKAKGKKFLQYNRLQLSRIYPKGQRLDSSNYDPLPMWICGSQLVALNFQTPDKPMQMNQALFMTGRHCGYVLQPSTMRDEAFDPFDKSSLRGLEPCAISIEVLGARHLPKNGRGIVCPFVEIEVAGAEYDSTKQKTEFVVDNGLNPVWPAKPFHFQISNPEFAFLRFVVYEEDMFSDQNFLAQATFPVKGLKTGYRAVPLKNNYSEDLELASLLIKIDIFPAKENGDLSPFSGTSLRERGSDASGQLFHGRAREGSFESRYQQPFEDFRISQEHLADHFDSRERRAPRRTRVNGDNRL
modifications: full-length
notes: full-length wild-type human PLCγ1 enzyme
B2: K491D: PLCγ1 variant with K491D mutation in the nucleotide binding site (protein, UniProt P19174 2-1290, looked up, variant K491D)
1-phosphatidylinositol …: AGAASPCANGCGPGAPSDAEVLHLCRSLEVGTVMTLFYSKKSQRPERKTFQVKLETRQITWSRGADKIEGAIDIREIKEIRPGKTSRDFDRYQEDPAFRPDQSHCFVILYGMEFRLKTLSLQATSEDEVNMWIKGLTWLMEDTLQAPTPLQIERWLRKQFYSVDRNREDRISAKDLKNMLSQVNYRVPNMRFLRERLTDLEQRSGDITYGQFAQLYRSLMYSAQKTMDLPFLEASTLRAGERPELCRVSLPEFQQFLLDYQGELWAVDRLQVQEFMLSFLRDPLREIEEPYFFLDEFVTFLFSKENSVWNSQLDAVCPDTMNNPLSHYWISSSHNTYLTGDQFSSESSLEAYARCLRMGCRCIELDCWDGPDGMPVIYHGHTLTTKIKFSDVLHTIKEHAFVASEYPVILSIEDHCSIAQQRNMAQYFKKVLGDTLLTKPVEISADGLPSPNQLKRKILIKHKKLAEGSAYEEVPTSMMYSENDISNSIDNGILYLEDPVNHEWYPHYFVLTSSKIYYSEETSSDQGNEDEEEPKEVSSSTELHSNEKWFHGKLGAGRDGRHIAERLLTEYCIETGAPDGSFLVRESETFVGDYTLSFWRNGKVQHCRIHSRQDAGTPKFFLTDNLVFDSLYDLITHYQQVPLRCNEFEMRLSEPVPQTNAHESKEWYHASLTRAQAEHMLMRVPRDGAFLVRKRNEPNSYAISFRAEGKIKHCRVQQEGQTVMLGNSEFDSLVDLISYYEKHPLYRKMKLRYPINEEALEKIGTAEPDYGALYEGRNPGFYVEANPMPTFKCAVKALFDYKAQREDELTFIKSAIIQNVEKQEGGWWRGDYGGKKQLWFPSNYVEEMVNPVALEPEREHLDENSPLGDLLRGVLDVPACQIAIRPEGKNNRLFVFSISMASVAHWSLDVAADSQEELQDWVKKIREVAQTADARLTEGKIMERRKKIALELSELVVYCRPVPFDEEKIGTERACYRDMSSFPETKAEKYVNKAKGKKFLQYNRLQLSRIYPKGQRLDSSNYDPLPMWICGSQLVALNFQTPDKPMQMNQALFMTGRHCGYVLQPSTMRDEAFDPFDKSSLRGLEPCAISIEVLGARHLPKNGRGIVCPFVEIEVAGAEYDSTKQKTEFVVDNGLNPVWPAKPFHFQISNPEFAFLRFVVYEEDMFSDQNFLAQATFPVKGLKTGYRAVPLKNNYSEDLELASLLIKIDIFPAKENGDLSPFSGTSLRERGSDASGQLFHGRAREGSFESRYQQPFEDFRISQEHLADHFDSRERRAPRRTRVNGDNRL

Test: Specific activity of PLC variants in assay 2 (A2)
Type: biochemical
Conditions: aldol substrate in solution
Protocol: The effect of nucleotide inhibition on PLC activity was measured using either a membrane-based assay with the fluorescent substrate (XY-69) incorporated into liposomes or using a small soluble substrate, Aldol 518 myo-inositol-1-phosphate (Aldol). Both methods utilised the same PLC assay buffer [20 mM Hepes-KOH, 70 mM KCl, 3 mM EGTA, 2.97 mM CaCl2, 2 mM TCEP and fatty acid-free bovine serum albumin (FAF-BSA; 50 μg/ml) (pH 7.5)]. Both assays were performed in low volume black 384-well plates (Greiner Bio-One), were composed of a final assay volume of 20 μl and were monitored in a Clariostar plate reader (BMG Labtech). […] The excitation and emission wavelengths were 588–15 and 642–20, respectively.
A CLARIOstar plate reader (BMG Labtech) was used to measure the production of the fluorescent product. The excitation and emission wavelengths were 485–15 and 520–20, respectively. Each experiment was performed in at least triplicate; in many cases, nine-fold replicates were generated. The enzyme progress curves were plotted for each concentration of nucleotide using Graphpad Prism software. The initial linear rate of product generation was calculated and converted to a % inhibition when compared with the rate of PLC activity in the absence of nucleotide. […]

Molecule	Specific Activity A2 [RFU/min/mg]
B1	18606 ± 685
B2	18974 ± 796
